# Where no end group is shown, it is not given here. The star is where a group is joined. Biotin = O=C1N[C@H]2[C@H](CS[C@H]2CCCCC(=O)*)N1
# B1: control peptide GS-22 (peptide)
# peptide: Biotin-GSNENQKTVKAESVPNMSFDQS
# B2: Neisseria meningitidis Hsf (Msf) of strain H44/76, expressed on meningococci (other)
# chain: NNEEQEEDLYLDPVQRTVAVLIVNSDKEGTGEKEKVEENSDWAVYFNEKGVLTAREITLKAGDNLKIKQNGTNFTYSLKKDLTDLTSVGTEKLSFSANGNKVNITSDTKGLNFAKETAGTNGDTTVHLNGIGSTLTDTLLNTGATTNVTNDNVTDDEKKRAASVKDVLNAGWNIKGVKPGTTASDNVDFVRTYDTVEFLSADTKTTTVNVESKDNGKKTEVKIGAKTSVIKEKDGKLVTGKDKGENGSSTDEGEGLVTAKEVIDAVNKAGWRMKTTTANGQTGQADKFETVTSGTNVTFASGKGTTATVSKDDQGNITVMYDVNVGDALNVNQLQNSGWNLDSKAVAGSSGKVISGNVSPSKGKMDETVNINAGNNIEITRNGKNIDIATSMTPQFSSVSLGAGADAPTLSVDGDALNVGSKKDNKPVRITNVAPGVKEGDVTNVAQLKGVAQNLNNRIDNVDGNARAGIAQAIATAGLVQAYLPGKSMMAIGGGTYRGEAGYAIGYSSISDGGNWIIKGTASGNSRGHFGASASVGYQW
# notes: Opc-deficient variants or mutants isolate the Msf effect; also called NhhA; NMB0992
# Assays:
# [1] = target: B2; experiment: ELISA with immobilised peptides
# [2] = target: human fibronectin (from serum) (human, UniProt P02751 32-2296); experiment: bacteria incubated in decomplemented serum, dot blot with specific antibodies
# human fibronectin (from serum), sequence (P02751 other isoform, or with tags, fused parts or gaps limits assumed): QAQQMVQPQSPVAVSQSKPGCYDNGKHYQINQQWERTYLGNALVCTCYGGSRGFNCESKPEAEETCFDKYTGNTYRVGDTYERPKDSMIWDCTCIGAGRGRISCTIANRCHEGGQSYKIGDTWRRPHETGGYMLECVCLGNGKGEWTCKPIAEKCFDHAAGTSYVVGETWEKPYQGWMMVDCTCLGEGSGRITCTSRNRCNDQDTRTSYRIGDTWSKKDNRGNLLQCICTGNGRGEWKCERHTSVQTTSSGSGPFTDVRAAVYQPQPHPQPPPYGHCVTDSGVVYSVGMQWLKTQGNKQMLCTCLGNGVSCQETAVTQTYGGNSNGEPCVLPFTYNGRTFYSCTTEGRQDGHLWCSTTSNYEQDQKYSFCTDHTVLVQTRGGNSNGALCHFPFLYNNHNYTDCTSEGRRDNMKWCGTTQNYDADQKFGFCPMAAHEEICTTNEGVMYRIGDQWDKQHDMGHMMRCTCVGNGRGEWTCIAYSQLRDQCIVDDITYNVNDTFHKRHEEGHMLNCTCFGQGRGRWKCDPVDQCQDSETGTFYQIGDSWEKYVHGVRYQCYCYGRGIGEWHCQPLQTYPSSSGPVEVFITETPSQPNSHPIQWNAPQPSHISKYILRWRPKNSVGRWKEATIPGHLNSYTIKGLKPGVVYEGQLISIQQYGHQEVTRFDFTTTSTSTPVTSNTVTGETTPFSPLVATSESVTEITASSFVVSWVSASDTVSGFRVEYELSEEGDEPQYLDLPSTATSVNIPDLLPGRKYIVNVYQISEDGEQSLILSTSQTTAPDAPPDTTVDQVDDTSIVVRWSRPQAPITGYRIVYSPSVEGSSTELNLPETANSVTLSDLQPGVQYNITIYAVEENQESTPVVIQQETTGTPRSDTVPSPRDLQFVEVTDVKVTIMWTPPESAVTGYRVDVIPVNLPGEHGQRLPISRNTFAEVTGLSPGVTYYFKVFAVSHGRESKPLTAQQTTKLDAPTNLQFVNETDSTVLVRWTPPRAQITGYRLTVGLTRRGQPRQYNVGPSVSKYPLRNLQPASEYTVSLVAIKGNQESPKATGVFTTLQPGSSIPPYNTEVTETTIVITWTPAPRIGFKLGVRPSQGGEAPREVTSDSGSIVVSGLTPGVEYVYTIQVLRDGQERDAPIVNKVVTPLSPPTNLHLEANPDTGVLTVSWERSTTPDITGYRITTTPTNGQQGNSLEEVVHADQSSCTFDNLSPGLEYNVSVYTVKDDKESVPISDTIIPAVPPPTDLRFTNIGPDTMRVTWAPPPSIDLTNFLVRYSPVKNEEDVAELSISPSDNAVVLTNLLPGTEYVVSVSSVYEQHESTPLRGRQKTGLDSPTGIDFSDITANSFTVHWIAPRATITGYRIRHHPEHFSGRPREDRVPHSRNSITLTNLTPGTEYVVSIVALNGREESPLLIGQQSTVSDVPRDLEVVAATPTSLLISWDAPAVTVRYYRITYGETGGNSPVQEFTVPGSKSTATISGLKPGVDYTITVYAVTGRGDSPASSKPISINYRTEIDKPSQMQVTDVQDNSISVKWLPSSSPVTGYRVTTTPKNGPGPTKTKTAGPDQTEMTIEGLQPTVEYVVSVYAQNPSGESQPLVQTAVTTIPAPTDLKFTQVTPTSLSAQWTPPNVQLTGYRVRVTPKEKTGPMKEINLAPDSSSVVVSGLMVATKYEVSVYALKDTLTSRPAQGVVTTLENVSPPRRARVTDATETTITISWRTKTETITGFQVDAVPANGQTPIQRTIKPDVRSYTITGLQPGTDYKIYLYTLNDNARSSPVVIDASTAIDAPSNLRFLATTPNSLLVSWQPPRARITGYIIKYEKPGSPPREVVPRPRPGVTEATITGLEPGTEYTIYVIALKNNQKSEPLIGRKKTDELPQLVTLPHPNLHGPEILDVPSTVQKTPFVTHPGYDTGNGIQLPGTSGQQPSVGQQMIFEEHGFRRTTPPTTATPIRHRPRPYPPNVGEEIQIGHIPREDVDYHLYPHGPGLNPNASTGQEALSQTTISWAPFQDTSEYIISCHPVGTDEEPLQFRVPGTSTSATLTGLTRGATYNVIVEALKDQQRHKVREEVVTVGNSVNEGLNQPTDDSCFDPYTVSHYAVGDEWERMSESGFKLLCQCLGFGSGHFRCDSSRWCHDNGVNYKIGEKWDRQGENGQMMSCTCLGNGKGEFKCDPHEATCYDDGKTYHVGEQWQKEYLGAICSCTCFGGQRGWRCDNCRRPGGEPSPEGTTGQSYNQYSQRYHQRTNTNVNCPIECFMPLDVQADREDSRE
# [3] = target: T1, native human vitronectin preparation (nVn) (human, UniProt P04004 20-478); experiment: binding of bacteria to nVn against aVn as reference
# T1 construct: Same protein as m4 in the native, closed conformation; also called native Vn
# T1 sequence (P04004 20-478 limits assumed): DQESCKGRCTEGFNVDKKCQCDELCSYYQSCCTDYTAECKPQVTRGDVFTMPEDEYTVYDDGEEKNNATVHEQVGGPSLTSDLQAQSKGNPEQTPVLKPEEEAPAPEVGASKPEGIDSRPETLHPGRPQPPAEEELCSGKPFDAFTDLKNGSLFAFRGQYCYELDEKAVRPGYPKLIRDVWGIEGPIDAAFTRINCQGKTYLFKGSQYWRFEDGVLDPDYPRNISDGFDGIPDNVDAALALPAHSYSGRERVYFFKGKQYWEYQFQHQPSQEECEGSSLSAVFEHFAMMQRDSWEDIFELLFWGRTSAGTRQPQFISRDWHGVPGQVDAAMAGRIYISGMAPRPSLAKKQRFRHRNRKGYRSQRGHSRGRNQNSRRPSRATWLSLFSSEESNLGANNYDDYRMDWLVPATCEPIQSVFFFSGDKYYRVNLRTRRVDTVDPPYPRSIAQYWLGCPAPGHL
# [4] = target: B2; experiment: ELISA, bacteria on immobilised vitronectin
# control peptide SY-30 = control peptide SY-30 (N-terminal biotin); experiment: ELISA with immobilised peptides
# control peptide GS-22 = target: B1; experiment: ELISA with immobilised peptides
# [5] = target: B2; experiment: ELISA, bacteria on immobilised heparin-affinity purified vitronectin
# [6] = target: B2; experiment: ELISA, bacteria on peptide immobilised on extravidin coated plates
# [7] = target: B2; experiment: ELISA, bacteria on immobilised biotinylated peptide
binder,measurement,setting,value
B1,binding result,[1],no binding
B2,binding result,[2],no binding (tested: 10% pooled human serum)
same,binding relative to the fully activated preparation of Vn,[3],~30%
"mouse vitronectin (other, also called mouse Vn) DQESCKGRCTQGFMASKKCQCDELCTYYQSCCADYMEQCKPQVTRGDVFTMPEDDYWSYDYVEEPKNNTNTGVQPENTSPPGDLNPRTDGTLKPTAFLDPEEQPSTPAPKVEQQEEILRPDTTDQGTPEFPEEELCSGKPFDAFTDLKNGSLFAFRGQYCYELDETAVRPGYPKLIQDVWGIEGPIDAAFTRINCQGKTYLFKGSQYWRFEDGVLDPGYPRNISEGFSGIPDNVDAAFALPAHRYSGRERVYFFKGKQYWEYEFQQQPSQEECEGSSLSAVFEHFALLQRDSWENIFELLFWGRSSDGAREPQFISRNWHGVPGKVDAAMAGRIYVTGSLSHSAQAKKQKSKRRSRKRYRSRRGRGHRRSQSSNSRRSSRSIWFSLFSSEESGLGTYNNYDYDMDWLVPATCEPIQSVYFFSGDKYYRVNLRTRRVDSVNPPYPRSIAQYWLGCPTSEK",binding result,[4],binds
"Neisseria meningitidis Opc of strain H44/76, expressed on meningococci (other, also called Opc-expressing Nm; (GB) Opc+Δµ) AQELQTANEFTVHTDLSSISSTRAFLKEKHKAAKHISVRADIPFDANQGIRLEAGFGRSKKNIINLETDENKLGKTKNVKLPTGVPENRIDLYTGYTYTQTLSDSLNFRVGAGLGFESSKDSIKTTKHTLHSSRQSWLAKVHADLLSQLGNGWYINPWSEVKFDLNSRYKLNTGVTNLKKDINQKTNGWGFGLGANIGKKLGESASIEAGPFYKQRTYKESGEFSVTTKSGDVSLTIPKTSIREYGLRVGIKF",binding result,control peptide SY-30,no binding
same,binding result,control peptide GS-22,no binding
same,binding relative to the fully activated preparation of Vn,[3],~30%
"rabbit vitronectin (other, also called rabbit Vn) DQESCKDRCTEGFNANRKCQCDELCSYYQSCCADYAAECKPQVTRGDVFTMPEDEYGPYDYIEQTKDNASVHAQPESPTVGQEPTLSPDLQTEGGAEPTHEVPLEPEMETLRPEGEDLQAGTTELGTSASPAEEELCSGKPFDAFTDLKNGSLFAFRGQYCYELDETAVRPGYPKLIQDVWGIEGPIDAAFTRINCQGKTYLFKGSQYWRFEDGILDPDYPRNISEGFSGIPDNVDAAFALPAHSYSGRERVYFFKGDKYWEYQFQQQPSQEECEGSSLSAVFEHFAMLHRDSWEDIFKLLFWGRPSGGARQPQFISRDWHGVPGKVDAAMAGRIYISGLTPSPSAKKQKSRRRSRKRYRSRYGRGRSQNSRRLSRSISRLWFSSEEVSLGPYNYEDYETSWLKPATSEPIQSVYFFSGDKYYRVNLRTQRVDTVNPPYPRSIAQYWLGCPAPGGQ",binding result,[5],binds
"Biotin-APRPSLAKKQRFRHRNRKGYRSQRGHSRGRNQNSRR (Synthetic peptide immobilised on extravidin coated plates; also called HBD peptide) [biotinylated vitronectin peptide AR-36 (Vn residues A360-R395, heparin-binding region)]",binding result,[6],binds
Biotin-VTRGDVFTMPEDEYTVYDDGEEKNNA (Synthetic peptide of human vitronectin V43-A68) [biotinylated vitronectin peptide VA-26 (amino acids 43-68)],binding result,[7],binds

# From patent publication US20130171184A1 (MACK TRUCKS, published 2013)
